{
  "source": "patent US20250026813A1",
  "about": "(published 2025)",
  "data": [
    {"biological_target": "SARS-CoV-2 spike protein receptor binding domain (RBD) (SARS-CoV-2, UniProt P0DTC2 319-541)", "units": {"Kd": "nM"}, "values": [
      {"binder": "IMPI-006 (antibody, V domains shown) VH: QLQLQESGPGLVKPSETLSLTCTVSGGSISNSNYYWGWIRQPPGKGLEWIGSIYYSGRTYYNPSLKSRVTISVDTSKNQFSLKLSSVTAADTAVYYCARMGLLWFGEFYGMDVWGQGTTVTVSS VL: DIQMTQSPSSLSASVGDRVTITCRASQGISSWLAWYQQKPEKAPKSLIYDASSLQRGVPSRFSGSGSGTDFTLTISSLQPEDFASYYCQQYNSYPLTFGGGTRVEIK", "Kd": 191},
      {"binder": "IMPI-017 (antibody, V domains shown) VH: EVQLVESGGGLIQPGGSLRLSCAAAGLTVSSNYMNWVRQVPGKGLEWVSVIYSGGSTYYADSVKGRFTISRDNSKNTLYLQMNSLRAEDTAVYYCARDLGTLGMDVWGQGTTVTVSS VL: DIQLTQSPSFLSASVGDRVTITCWASQGISTYLAWYQQKPGKAPKLLIYAASTLQSGVPSRFSGSGSGTEFTLTISSLQPEDFATYYCQQLNSYLPTFGQGTKVEIK", "Kd": 2.25},
      {"binder": "IMPI-005 (antibody, V domains shown) VH: EVQLVESGGGLIQPGGSLRLSCAASGFTVSSNYMNWVRQAPGKGLEWVSVIYSGGSTYYADSVKGRFTISRDNSKNTLFLQMNSLRAEDSAVYYCARDLGPYGVDVWGQGTTVTVSS VL: DIQLTQSPSFLSASVGDRVTITCWASQGISSYLAWYQQKPGKAPKLLIYAASTLQSGVPSRFSGSGSGTEFTLTISSLQPEDFATYYCQELNSYPLTFGQGTRLEIK", "Kd": 24.9},
      {"binder": "IMPI-037 (antibody, V domains shown) VH: not shown VL: DIQLTQSPSFLSASVGDRVTITCWASQGINSYLAWYQQKPGKAPKLLIYAASTLQSGVPSRFSGSGSGTEFTLTISSLQPEDFTTYYCQQFNDYPRTFGPGTKVEIK", "note": "[IMPI-037, listing 1 of 2 here]", "Kd": 22.3},
      {"binder": "IMPI-021 (antibody, V domains shown) VH: EVQLVESGGGLIQPGGSLRLSCAASGVTVSSNYMSWVRQAPGKGLEWVSVIYSGGSTFYADSVKGRFTISRDNSKNTLYLQMNSLRAEDTAVYYCARDLSYYGMDVWGQGTTVTVSS VL: DIQLTQSPSFLSASVGDRVTITCWASQGISSYLAWYQQKPGKAPKLLIYAASTLQSGVPSKFSGSGSGTEFTLTISSLQPEDFATYYCQQLNSYPCSFGQGTKLEIK", "Kd": 14.7}
    ]},
    {"biological_target": "SARS-CoV-2 spike protein N-terminal domain (NTD) (SARS-CoV-2, UniProt P0DTC2 14-305)", "units": {"Kd": "nM"}, "values": [
      {"binder": "IMPI-022 (antibody, V domains shown) VH: EVQLVESGGGLVQPGRSLRLSCAASGFTFDDYAMHWVRQAPGKGLEWVSGITWNSGSIGYADSVKGRFTISRDNAKNSLYLHMNSLRVEDTALYYCAKDLQGDYYYYGVDVWGQGTTVTVSS VL: AIQLTQSPSSLSASVGDRVTITCRASQGISSALAWYQQKPGKAPKLLLYDASSLVSGVPSRFSGSRSGTDFTLTISSLQPEDFATYYCQQFISYPLTFGGGTRVEIK", "Kd": 603},
      {"binder": "IMPI-017 (antibody, V domains shown) VH: EVQLVESGGGLIQPGGSLRLSCAAAGLTVSSNYMNWVRQVPGKGLEWVSVIYSGGSTYYADSVKGRFTISRDNSKNTLYLQMNSLRAEDTAVYYCARDLGTLGMDVWGQGTTVTVSS VL: DIQLTQSPSFLSASVGDRVTITCWASQGISTYLAWYQQKPGKAPKLLIYAASTLQSGVPSRFSGSGSGTEFTLTISSLQPEDFATYYCQQLNSYLPTFGQGTKVEIK", "Kd": 1050}
    ]},
    {"biological_target": "RBD domain of the spike protein of SARS-CoV-2 virus (Acro Biosystems SPD-C52H3) (SARS-CoV-2, UniProt P0DTC2 319-537)", "units": {"IC50": "nM"}, "values": [
      {"binder": "IMPI-059 (antibody, V domains shown) VH: EVQLVESGGGLIQPGGSLRLSCAASGFTVSSIYMSWVRQAPGKGLEWVSIIYSRGSTDYADSVKGRFTISRDISKNTLYLQMNSLRAEDTAVYYCARDGTMVRGVHAFDIWGQGTMVTVSS VL: DIQMTQSPPSLSASIGDRVTITCQASQDISNYLNWYQQKPGKAPKLLIYDASNLETGVPSRFSGSGSGTDFTLTISNLQPEDIVTYYCQQYDNLPSSFGQGTKLEIK", "IC50": 2.02},
      {"binder": "IMPI-037 (antibody, V domains shown) VH: not shown VL: DIQLTQSPSFLSASVGDRVTITCWASQGINSYLAWYQQKPGKAPKLLIYAASTLQSGVPSRFSGSGSGTEFTLTISSLQPEDFTTYYCQQFNDYPRTFGPGTKVEIK", "note": "[IMPI-037, listing 2 of 2 here]", "IC50": 7.76},
      {"binder": "IMPI-052 (antibody, V domains shown) VH: EVQLVESGGGLIQPGGSLRLSCAASGVTVSSNYMNWVRQAPGKGLEGVSVIYSGGTTYYADSVKGRFTISRDNSKNTLYLQMNSLRAEDTAVYYCARDTVVYGMDVWGQGTTVTVSS VL: DIQLTQSPSFLSASVGDRVTITCWASQGISSYLAWYQQKPGKAPKLLIYTASTLQSGVPSRFSGSGSGTEFTLTISSLQPEDFATYYCQQLNSYPLTFGGGTKVEIK", "IC50": 4.85}
    ]}
  ]
}
